Assay results reported in publication PMC12034804.

B1: recombinant human Siglec-10 Fc chimera (Fc fusion)
chain: MDGRFWIRVQESVMVPEGLCISVPCSFSYPRQDWTGSTPAYGYWFKAVTETTKGAPVATNHQSREVEMSTRGRFQLTGDPAKGNCSLVIRDAQMQDESQYFFRVERGSYVRYNFMNDGFFLKVTALTQKPDVYIPETLEPGQPVTVICVFNWAFEECPPPSFSWTGAALSSQGTKPTTSHFSVLSFTPRPQDHNTDLTCHVDFSRKGVSAQRTVRLRVAYAPRDLVISISRDNTPALEPQPQGNVPYLEAQKGQFLRLLCAADSQPPATLSWVLQNRVLSSSHPWGPRPLGLELPGVKAGDSGRYTCRAENRLGSQQRALDLSVQYPPENLRVMVSQANRTVLENLGNGTSLPVLEGQSLCLVCVTHSSPPARLSWTQRGQVLSPSQPSDPGVLELPRVQVEHEGEFTCHARHPLGSQHVSLSLSVHYSPKLLGPSCSWEAEGLHCSCSSQASPAPSLRWWLGEELLEGNSSQDSFEVTPSSAGPWANSSLSLHGGLSSGLRLRCEAWNVHGAQSGSILQLPDKKGLISTAFSN

Legend:
[1] = target: enhanced green fluorescent protein (eGFP) [GFP: P42212]; test: BLI; ForteBio sensors loaded with 20 nM solutions, baseline in PBS with 1 mg/ml BSA, single concentration of analyte, 1000 rpm, 1:1 binding model, Kd from kd : ka; the section's heading calls it isothermal titration calorimetry; who was on the sensor is not told
[2] = target: eGFP-CD24 (CD24 fused with eGFP at the N-terminus), on CHO-CD24 cells (UniProt P25063)
[3] = target: de-N-glycosylated eGFP-CD24, on CHO-CD24 cells treated with nbGFP-PNGF (UniProt P25063); test: flow cytometry on cells; CHO-CD24 cells incubated with 5 nM PNGF or nbGFP-PNGF for 2 hours, with or without 50 µM P-3Fax-Neu5Ac; bound enzyme dissociated in acidic buffer (100 mM Glycine, 150 mM NaCl, pH 3.0, 0.1% Tween-20) for 2 min; then human Siglec-10 Fc chimera, biotin anti-human IgG Fc, Cy5-streptavidin
[4] = target: eGFP-CD24 (CD24 fused with eGFP at the N-terminus), on CHO-CD24 cells (UniProt P25063); remark: listed apart in the source

Molecule | Kd [1] [nM] | de-N-glycosylation of eGFP-CD24 on CHO cells (western blot, 2 h): concentration at which it is complete; 500 nM PNGF without the nanobody could not [2] [nM] | percent of the CD24/Siglec-10 interaction that is due to the N-glycans (lost on de-N-glycosylation) [3] [%] | phagocytosis of CHO-CD24 cells by mouse bone marrow-derived macrophages after treatment with nbGFP-PNGF, against control (flow cytometry) [4] [fold]
nbGFP-PNGF (Peptide-N-glycosidase F fused to an N-terminal nanobody against eGFP) | 5.58 | 5 | – | –
B1 | – | – | > 82 | 0.5
